In publication PMC3173608 (Structure(London, England:1993), 2011):

Target: the molecule itself
Test: SEC

B1: CsgG_(16-277) (domain or fragment)
chain: CLTAPPKEAARPTLMPRAQSYKDLTHLPAPTGKIFVSVYNIQDETGQFKPYPASNFSTAVPQSATAMLVTALKDSRWFIPLERQGLQNLLNERKIIRAAQENGTVAINNRIPLQSLTAANIMVEGSIIGYESNVKSGGVGARYFGIGADTQYQLDQIAVNLRVVNVSTGEILSSVNTSKTILSYEVQAGVFRFIDYQRLLEGEVGYTSNEPVMLCLMSAIETGVIFLINDGIDRGLWDLQNKAERQNDILVKYRHMSVPPES
stoichiometry N: 8 protomers
